Where “and” joins values, the source holds several entries; their conditions need not be identical. Equal values may be shown once. Read-outs that look alike come from different tables or passages of the source.
Assays:
human GPRC5D [1] = target: T1, human GPRC5D (human, UniProt Q9NZD1 1-345); assay: cell ELISA, CHO hu GPRC5D (EC/IC50 rel)
T1 construct: also called G protein-coupled receptor class C group 5 member D; hu GPCR5D
In short: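 Stably transfected CHO cells seeded overnight, then incubated 2 h at 4° C with antibody IgGs in 15-point 1:3 dilutions from 30 μg/ml. Cells fixed with 0.05% glutaraldehyde; binding detected with HRP anti-human Ig and TMB, absorbance at 370/492 nm.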

human GPRC5D [2] = target: T1, human GPRC5D; assay: cell-based or functional assay
human GPRC5D [3] = target: T1, human GPRC5D; assay: cell ELISA, CHO cells stably expressing human GPRC5D
Procedure: (§1) Stable transfected CHO clones expressing either human GPRCSD or cynomolgus GPRCSD or murine GPRCSD or human GPRCSA were used to analyze the binding of potential lead candidate antibodies as IgGs. In detail, 10⁴ cells (viability≥98%) were seeded into 384 well-microtiter plates (BD Poly D-Lysin, #356662, volume: 25 μl/well) using fresh culture medium. After overnight incubation at 37° C., 25 μl/well dilutions of antibodies were added (15×1:3 dilutions in 1×PBS, assay conc. starts at 30 μg/ml) to the cells for 2 hours at 4° C. After one washing step using 90 μl/well PBST (10×PBS, Roche, #11666789001+0.1% Tween 20), cells were subsequently fixed by the addition of 50 μl/well 0.05% glutaraldehyde (Sigma Cat. No: G5882 in 1×PBS) for 10 min at room temperature (RT). After three additional washing steps using 90 μl/well PBST, secondary antibodies were added for detection: for human antibodies goat anti-human Ig a chain antibody HRP conjugate (Millipore #AP502P) diluted 1:2000 in blocking buffer (1×PBS (Roche #11666789001)+2% BSA (Bovine Serum Albumin Fraction V, fatty acid free, Roche, #10735086001)+0.05% Tween 20) was used (25 μl/well). […] After incubation for 1 h at RT and three additional washing steps using 90 μl/well PBST, 25 μl/well TMB substrate was added (Roche order no. 11835033001) for 10 min and color development to final ODs was determined by measurement at 370 nm/492 nm.

human GPRC5D [4] = target: T1, human GPRC5D; assay: cell-based or functional assay; remark: listed apart in the source
human GPRC5A = target: T2, human GPRC5A (human, UniProt Q8NFJ5 1-357); assay: cell ELISA on stably transfected CHO cells
T2 construct: whole, on cells; also called hu GPCR5A; GPRCSA
Procedure: as §1
(§2) Cynomolgus crossreactivity was also detected for all other antibodies but at lower levels compared to 10B10 and 07A04 (FIG. 9). No significant binding to CHO cells expressing murine GPRC5D and no binding to CHO cells expressing the human version of GPRC5A was detected (FIG. 9).

cynomolgus GPRC5D = target: T3, cynomolgus GPRC5D (cynomolgus); assay: cell ELISA, CHO cells stably expressing cynomolgus GPRC5D
T3 construct: whole, on cells; also called cyno GPRC5D; CHO cy GPCR5D
Procedure: as §1

murine GPRC5D = target: T4, murine GPRC5D (murine, UniProt Q9JIL6 1-344); assay: cell ELISA on stably transfected CHO cells
T4 construct: whole, on cells
T4 sequence (looked up): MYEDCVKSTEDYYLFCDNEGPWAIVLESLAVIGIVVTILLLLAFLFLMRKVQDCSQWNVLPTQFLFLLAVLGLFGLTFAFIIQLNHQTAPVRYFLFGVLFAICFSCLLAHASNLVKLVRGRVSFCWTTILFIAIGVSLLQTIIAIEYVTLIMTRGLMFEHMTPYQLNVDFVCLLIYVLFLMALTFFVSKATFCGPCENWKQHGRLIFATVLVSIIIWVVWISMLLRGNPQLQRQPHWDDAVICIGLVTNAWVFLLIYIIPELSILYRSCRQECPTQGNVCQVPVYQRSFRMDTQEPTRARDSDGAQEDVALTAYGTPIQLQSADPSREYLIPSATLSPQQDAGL
Procedure: as §1, §2

human GPRC5D [5] = target: T1, human GPRC5D; assay: flow cytometry on NCI-H929 cells; paragraph 550 says these values were falsely calculated by a factor of 10 (too low)
Procedure: To measure the binding to GPRC5D, we performed a flow cytometry-based binding assay on reported multiple myeloma cell lines (Lombardi et al., Molecular characterization of human multiple myeloma cell lines by integrative genomics: insights into the biology of the disease; Genes Chromosomes Cancer. 2007 March; 46(3):226-38). The cell line NCI-H929 (ATCC® CRL-9068) was cultured in RPMI 1640 with Glutamax medium (Gibco) supplemented with 10% FBS, 1× Penicillin/Streptomycin (Gibco), 1× Sodium Pyruvate (Gibco) and 50 μM beta-Mercaptoethanol (Gibco). Jurkat-NFAT reporter cells (a CD3-expressing human acute lymphatic leukemia reporter cell line with a NFAT promoter, GloResponse Jurkat NFAT-RE-luc2P, Promega #CS176501) were cultured in RPMI 1640, containing 2 g/l Glucose, 2 g/l NaHCO₃, 10% FCS, 25 mM HEPES, 2 mM L-Glutamine, 1×NEAA, 1× Sodium-pyruvate and 200 μg/ml Hygromycin B.
Flow cytometry acquisition was performed on a custom-designed BD Biosciences Fortessa and analyzed using BD Diva. EC50 values were calculated, using GraphPad Prism software.

human GPRC5D [6] = target: T1, human GPRC5D; assay: cell-based or functional assay; remark: listed apart in the source
human GPRC5D [7] = target: T1, human GPRC5D; assay: cell-based or functional assay; remark: listed apart in the source
human GPRC5D [8] = target: T1, human GPRC5D; assay: cell-based or functional assay; remark: listed apart in the source

T2 sequence (Q8NFJ5 whole entry): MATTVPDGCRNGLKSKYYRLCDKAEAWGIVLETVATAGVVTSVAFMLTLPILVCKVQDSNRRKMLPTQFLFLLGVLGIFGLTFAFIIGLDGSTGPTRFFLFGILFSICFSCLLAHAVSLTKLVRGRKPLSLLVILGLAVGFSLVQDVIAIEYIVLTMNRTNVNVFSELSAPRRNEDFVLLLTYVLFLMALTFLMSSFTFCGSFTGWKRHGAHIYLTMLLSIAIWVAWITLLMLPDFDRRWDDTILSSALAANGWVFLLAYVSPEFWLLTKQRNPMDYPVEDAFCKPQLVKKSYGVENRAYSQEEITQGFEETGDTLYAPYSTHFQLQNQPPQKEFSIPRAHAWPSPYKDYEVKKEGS
T1 sequence (Q9NZD1 whole entry): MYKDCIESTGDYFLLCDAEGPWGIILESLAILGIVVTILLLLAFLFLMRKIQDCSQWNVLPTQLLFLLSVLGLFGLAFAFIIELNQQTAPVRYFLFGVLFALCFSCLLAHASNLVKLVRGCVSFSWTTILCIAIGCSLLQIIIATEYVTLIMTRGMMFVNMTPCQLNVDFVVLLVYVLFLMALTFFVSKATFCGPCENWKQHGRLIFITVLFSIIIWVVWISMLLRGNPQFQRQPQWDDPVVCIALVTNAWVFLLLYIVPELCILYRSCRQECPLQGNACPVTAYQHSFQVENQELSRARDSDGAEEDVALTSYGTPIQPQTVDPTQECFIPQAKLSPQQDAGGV

B1: 5E11-IgG (antibody, V domains shown)
VH: ELQLEQSGGGLVQPGGSLTLSCAASGFTFSKYAMAWVRQAPTKGLEWVASISTGGVNTYYRDSVKARFTISRDNAKNTQYLQMDSLRSEDTATYYCATHTGDYFDYWGQGVMVTVSS
VL: DIVLTQSPALAVSPGQRATISCRASQSVSISGINLMNWYQQKPGQQPKLLIYHASILASGIPTRFSGSGSGTDFTLTIDPVQADDIATYYCQQTRESPLTFGSGTNLEIK
notes: Rat-derived variable domains, tested as IgG; also called P1AE5706 (parental); 5E11 parental
Human GPRC5D [1]
  EC50: 0.0104 µg/mL and 0.07 nM
Human GPRC5D [2]
  CAR-J2 EC50 [ng/mL] (PGLALA-CAR-J activation, L363 target cells): 3.9 ng/mL
Human GPRC5D [3]
  EC50: 0.0296 µg/mL and 0.198 nM
Human GPRC5D [4]
  EC50 values of CAR-J activation: 3.9 ng/mL
Human GPRC5A
  binding result: no binding (tested: assay conc. starts at 30 µg/ml)

B2: 10B10 IgG (antibody, V domains shown)
VH: EVQLVESGGGLVQPGRSMKLSCAASGFTFTNFYMAWVRQAPTKALEWVASINTGGGYTYYRDSVKGRFTVSRDNTRSTLYLQMDSLRSEETATYYCARHLTYYGRYYYFDYWGQGVMVTVSS
VL: DIQLTQSPHSLSASLGETVSIECLASEGISNYLAWFHQKPGKSPQLLIYYASSLQDGVPSRFSGSGSGTQYSLKISNMQPEDEGVYYCQQGYKYPLTFGSGTKLEIK
Cynomolgus GPRC5D
  EC50: 0.012 µg/mL and 0.08 nM
Human GPRC5D [3]
  EC50: 0.0163 µg/mL and 0.109 nM
Human GPRC5A
  binding result: no binding (tested: assay conc. starts at 30 µg/ml)
Murine GPRC5D
  binding result: no binding (tested: assay conc. starts at 30 µg/ml)

B3: 07A04 IgG (antibody, V domains shown)
VH: QVTLKESGPGILQPSHTLSLTCSFSGFSLSTYGMGVNWIRQPSGKGLEWLASIWWNGNTYNNPSLKSRLTVSKDTSNNQAFLKVTSVDTADTATYYCVHTRGIIRGRGLFFDYWGQGVMVTVSS
VL: DVQMTQSPYNLAASPGESVSINCKASKSISKYLAWYQQKPGKANKLLIYDGSTLQSGIPSRFSGSGSGTDFTLTIRSLEPEDFGLYYCQQHNEYPLTFGSGTKLEIKR
notes: the format as tested is not certain
Cynomolgus GPRC5D
  EC50: 0.115 µg/mL and 0.764 nM
Human GPRC5D [3]
  EC50: 0.0243 µg/mL and 0.162 nM
Human GPRC5A
  binding result: no binding (tested: assay conc. starts at 30 µg/ml)
Murine GPRC5D
  binding result: no binding (tested: assay conc. starts at 30 µg/ml)

B4: 5F11(VH1c + VL1b)-C122-TCB (P1AE6624) (bispecific antibody, human IgG1, kappa, L234A L235A)
light 1: DIVMTQSPLSLPVTPGEPASISCRSSKSLLHSNGITYVYWYLQKPGKSPQVLIYRMSNLASGVPDRFSGSGSGTDFTLKISRVEAEDVGVYHCGQLLENPYTFGQGTKLEIKRTVAAPSVFIFPPSDRKLKSGTASVVCLLNNFYPREAKVQWKVDNALQSGNSQESVTEQDSKDSTYSLSSTLTLSKADYEKHKVYACEVTHQGLSSPVTKSFNRGEC
light 2: EVQLLESGGGLVQPGGSLRLSCAASGFQFSSYAMNWVRQAPGKGLEWVSRIRSKYNNYATYYADSVKGRFTISRDDSKNTLYLQMNSLRAEDTAVYYCVRHTTFPSSYVSYYGYWGQGTLVTVSSASVAAPSVFIFPPSDEQLKSGTASVVCLLNNFYPREAKVQWKVDNALQSGNSQESVTEQDSKDSTYSLSSTLTLSKADYEKHKVYACEVTHQGLSSPVTKSFNRGEC
heavy 1: QVQLVESGGGVVQPGRSLRLSCAASGFSFSNYGMAWVRQAPGKGLEWVASISTGGGNTYYADSVKGRFTISRDNSKNTLYLQMNSLRAEDTAVYYCTRHDRGGLYWGQGTMVTVSSASTKGPSVFPLAPSSKSTSGGTAALGCLVEDYFPEPVTVSWNSGALTSGVHTFPAVLQSSGLYSLSSVVTVPSSSLGTQTYICNVNHKPSNTKVDEKVEPKSCDKTHTCPPCPAPEAAGGPSVFLFPPKPKDTLMISRTPEVTCVVVDVSHEDPEVKFNWYVDGVEVHNAKTKPREEQYNSTYRVVSVLTVLHQDWLNGKEYKCKVSNKALGAPIEKTISKAKGQPREPQVCTLPPSRDELTKNQVSLSCAVKGFYPSDIAVEWESNGQPENNYKTTPPVLDSDGSFFLVSKLTVDKSRWQQGNVFSCSVMHEALHNHYTQKSLSLSPGK
heavy 2: not shown
notes: 2+1 TCB: LC1 (anti-GPRC5D), LC2 (anti-CD3 crossed), HC1 Fc hole, HC2 Fc knob
Human GPRC5D [5]
  EC50: 0.1 nM
Human GPRC5D [6]
  EC50 (pM), activation of autologous T-cells (CD69 on CD8 T cells) with a primary MM sample: 1.06 pM
Human GPRC5D [7]
  AUC, activation of Jurkat-NFAT reporter cells in presence of RPMI-8226 cells: 881000
  EC50 (pM), activation of Jurkat-NFAT reporter cells in presence of RPMI-8226 cells: 4.5 pM

B5: 5F11-IgG (antibody, V domains shown)
VH: EVQLVESGGGLVQPGRSLKLSCAASGFSFSNYGMAWVRQAATKGLEWVASISTGGGNTYYRDSVKGRFIVSRDNAKNTQYLQMDSLRSEDTATYYCTRHDRGGLYWGQGVMVTVSS
VL: DIVMTQAPLSVSVTPGESASISCRSSKSLLHSNGITYVYWYFQKPGKSPQVLIYRMSNLASGVPDRFSGSGSETDFTLKISRVEAEDVGIYHCGQLLENPYTFGAGTELELK
notes: Rat-derived variable domains, tested as IgG; also called P1AE5733 (parental); 5F11_parental
Human GPRC5D [1]
  EC50: 0.0058 µg/mL and 0.04 nM
Human GPRC5D [8]
  CAR-J2 EC50 [ng/mL] (PGLALA-CAR-J activation, L363 target cells): 2.65 ng/mL
Human GPRC5D [3]
  EC50: 0.0217 µg/mL and 0.144 nM
Human GPRC5D [4]
  EC50 values of CAR-J activation: 2.65 ng/mL
Human GPRC5A
  binding result: no binding (tested: assay conc. starts at 30 µg/ml)
